Laboratory results published in patent publication US20080103095A1 (HEALTH RESEARCH, published 2008).

Target: T1, native hsp110 from murine tumor cells (Colon26 / colon 26, Meth A) and liver (mouse (murine colon 26 tumor), UniProt Q61699 2-858, limits assumed)
T1 construct: Native protein in cell extracts or chromatographic fractions; also called heat shock protein 110
Experiment: immunoblot of the purified native hsp110 fraction (ion exchange and size exclusion) from Colon26 cells

T1 sequence (Q61699 2-858 limits assumed): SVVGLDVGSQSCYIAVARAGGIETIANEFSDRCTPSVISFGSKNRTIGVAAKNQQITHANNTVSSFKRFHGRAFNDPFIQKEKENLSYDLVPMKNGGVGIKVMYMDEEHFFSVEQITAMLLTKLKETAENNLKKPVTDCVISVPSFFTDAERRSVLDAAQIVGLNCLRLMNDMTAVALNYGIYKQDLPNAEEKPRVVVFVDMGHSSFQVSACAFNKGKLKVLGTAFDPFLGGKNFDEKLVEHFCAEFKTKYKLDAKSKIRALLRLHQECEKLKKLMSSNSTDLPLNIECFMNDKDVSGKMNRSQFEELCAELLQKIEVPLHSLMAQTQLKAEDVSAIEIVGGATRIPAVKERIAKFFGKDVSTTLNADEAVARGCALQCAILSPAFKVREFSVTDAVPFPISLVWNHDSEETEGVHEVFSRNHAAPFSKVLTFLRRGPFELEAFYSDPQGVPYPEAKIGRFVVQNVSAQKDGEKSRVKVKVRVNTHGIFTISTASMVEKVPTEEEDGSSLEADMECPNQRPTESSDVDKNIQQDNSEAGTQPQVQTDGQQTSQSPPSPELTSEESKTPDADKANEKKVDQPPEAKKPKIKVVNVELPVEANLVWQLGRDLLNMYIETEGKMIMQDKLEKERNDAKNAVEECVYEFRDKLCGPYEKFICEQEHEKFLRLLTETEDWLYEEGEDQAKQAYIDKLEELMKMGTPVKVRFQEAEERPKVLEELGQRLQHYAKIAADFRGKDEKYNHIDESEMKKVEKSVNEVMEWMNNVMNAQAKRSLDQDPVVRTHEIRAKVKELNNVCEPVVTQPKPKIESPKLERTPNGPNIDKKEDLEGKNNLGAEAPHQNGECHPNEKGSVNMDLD

binding result: no binding
B1: T-complex polypeptide1 (TCP-1) in Colon26 cells (other)
chain: not shown
